In patent US5223256A, “Thrombolytically active non-glycosylated protein” (Boehringer Mannheim GmbH, priority 1989, dated 1993):

Key:
[1] = Pharmacokinetics in rabbits (t-PA activity in plasma); assay type: in vivo, New-Zealand white rabbits; conditions: 200000 IU/kg, i.v. infusion 30 min
Method: The pharmacokinetic properties of K2P were compared to those of Actilyse® in New-Zealand white rabbits. Both fibrinolytic agents were infused for 30 minutes at a dose of 200,000 IU/kg body weight. Plasma samples were taken at defined times before, during and after the infusion. The t-PA activity was measured with a spectrophotometric test according to J. H. Verheijen et al., (Thromb. Haemostas. 48, 266, 1982), modified according to H. Lill (Z. ges. Inn. Med. 42, 478, 1987).
A calculation programme for non-linear regression modified according to H. Y. Huang (Aero-Astronautics-Report 64, Rice University, 1-30, 1969) Was used to calculate the pharmacokinetic parameters. The parameters were calculated individually using a bi-exponential pharmacokinetic model.

jugular vein thrombosis = test: Thrombolysis in the rabbit jugular vein model; assay type: in vivo; conditions: 4 h infusion, mean ± SEM
Method: (§1) The jugular vein model established by D. Collen et al., (J. Clin. Invest. 71, 368, 1983) was used to investigate the thrombolytic efficacy. K2P and Actilyse® were each examined at three dose levels. The fibrinolytic agents were infused for 4 hours and afterwards the rate of thrombolysis was determined (Table 2, FIG. 5).

coagulation system [2] = test: Haemostasis parameters in the rabbit jugular vein model; assay type: in vivo; conditions: 30 min after end of infusion, mean ± SEM
Method: as §1
(§2) Thrombolysis, level of t-PA plasma activity (at the end of a 4 h
and haemostasis parameters (30 min after the end of the infusion) of
Mean ± SEM; kU = 1000 IU; HaemostasisParameter (% with reference to […]

[3] = system: coronary artery thrombosis; test: Dog model for coronary artery thrombosis (thrombolysis); assay type: in vivo; conditions: for Wet weight of the residual thrombus: 2 h; for Wet weight of the residual thrombus / Reperfusion time: mean ± SEM
From the text: An experimental model for acute myocardial infarction in animals was chosen as an example in order to examine the thrombolytic effect of K2P from E. coli on arterial thrombi. The dog was chosen as the animal species. The method for the formation of a coronary artery thrombus was a modification of the technique of Romson et al., (Thromb. Res. 17, 841, 1980). In the open thorax of anaesthetized dogs which were artificially respirated, the intimal surface of the ramus branch of the left circumflex coronary artery (LCX) was electrically stimulated (150 μA) and by this means a thrombus was produced. Previously a screw was applied distal to the thrombosis in order to eliminate a reactive hyperaemia by the experimental stenosis. Proximal to the coronary thrombosis the LCX was equipped with an electromagnetic flow measuring head in order to be able to measure the reperfusion.
(§3) In a study to determine the dosage, BM 06.022 with the eukaryotic t-PA (Alteplase, Actilyse®, Dr. Karl Thomae GmbH, Biberach, FRG) in four different doses and with placebo were injected as an initial single intravenous bolus over 1 min into heparinized dogs; 6 animals were injected with each dose. Plasma samples were taken before and at defined times after the injection in order to determine the plasma concentration of the t-PA activity and of fibrinogen, plasminogen and α2 -antiplasmin as well as the number of thrombocytes in whole blood. Fibrinogen was measured coagulometrically according to Clauss (Acta haemat. 17, 237, 1957), plasminogen and α2-antiplasmin were measured spectrophotometrically as described by Collen et al., (J. Clin. Invest. 71, 368, 1983). In addition, the "Simplate bleeding time" was measured on the hind leg of the dogs using a lancet (Simplate® I, Organon Teknika, Eppelheim, FRG) during a venostasis of 40 mm Hg (J. Surg. Res. 27, 244, 1979). The statistical comparison of the measured values after injection with the control value before injection was carried out with the Wilcoxon Test for pair differences.
In order to describe the thrombolytic effect, the number of reperfused animals per dose-group (=reperfusion rate) as well as the time up to the reperfusion (=reperfusion time) was quoted. In addition, the wet weight of the residual thrombus still present 2 h after injection was measured and the number of animals with a re-occlusion after reperfusion (=re-occlusionrate) was determined. With the aid of a semi-logarithmic regression analysis of the dose-effect (reperfusion rates) relationships, the effective dose for a 50% reperfusion rate (=ED50) was determined for each substance. The statistical comparison of the weights of the residual thrombi was carried out using the Wilcoxon-Mann-Whitney Test for unconnected random samples.

[4] = Pharmacokinetics in the dog (t-PA activity in plasma); assay type: in vivo; conditions: 200000 IU/kg, i.v. bolus, mean ± standard deviation
Method: as §3
The plasma concentration of the t-PA activity was measured with a spectrophotometric test according to Verheijen et al., (Thromb. Haemost. 48, 266, 1982) modified according to Lill (Z. gesamte Inn. Med. 42, 478, 1987). A calculation programme for non-linear regression modified according to H. Y. Huang (Aero-Astronautics-Report 64, Rice University, USA, 1-30, 1969) was used to calculate the pharmacokinetic parameters. The parameters were calculated individually using a bi-exponential pharmacokinetic model after subtraction of the endogenous basal level of t-PA activity from the subsequent measured values.

coagulation system [5] = test: Coagulation parameters and number of thrombocytes in the dog; assay type: in vivo; conditions: for Fibrinogen (% of initial value) / Number of platelets (% of initial value) / Plasminogen (% of initial value) / α2-Antiplasmin (% of initial value): 2 h after i.v. bolus, mean ± SEM
Method: as §3

bleeding time = test: Simplate bleeding time in the dog; assay type: in vivo; conditions: i.v. bolus
Method: as §3

[6] = Plasma t-PA activity at the end of infusion in the rabbit jugular vein model; assay type: in vivo; conditions: end of 4 h infusion, mean ± SEM
Method: as §1, §2

[7] = background; cited from earlier work
plasminogen = conditions: background; cited from earlier work
[8] = background; cited from earlier work; remark: listed apart in the source

## Actilyse®: eukaryotic t-PA (Alteplase, Actilyse®, Dr. Karl Thomae GmbH, Biberach, FRG)
[1]
  Cinf (plasma concentration of t-PA activity at end of infusion): 326,6 IU/ml
  Cltot (total plasma clearance): 22.2 mL/min/kg
  Vc (volume of distribution of the central compartment): 73.7 mL/kg
  t1/2α: 2,1 min
  t1/2β: 10,9 min
[1]; listed as Actilyse ®
  Cltot (total plasma clearance): 22,2 ml/min/kg
  Vc (volume of distribution of the central compartment): 73,7 ml/kg
Jugular vein thrombosis; 400 kU/kg
  Thrombolysis: 46 ± 3%
Jugular vein thrombosis; 800 kU/kg
  Thrombolysis: 64 ± 6%
Coagulation system [2]; 400 kU/kg
  Fibrinogen (% of base line): 90 ± 3%
  Plasminogen (% of base line): 88 ± 4%
  α2-Antiplasmin (% of base line): 87 ± 3%
Coagulation system [2]; 800 kU/kg
  Fibrinogen (% of base line): 77 ± 6%
  Plasminogen (% of base line): 77 ± 4%
  α2-Antiplasmin (% of base line): 74 ± 6%
[3]; 1 130 000 IU/kg, i.v. bolus
  Re-occlusion rate: 4/4
  Reperfusion rate: 4/6
  Wet weight of the residual thrombus: 4,4 ± 0,5 mg
  Reperfusion time: 14 ± 3 min
[3]; 1 600 000 IU/kg, i.v. bolus
  Re-occlusion rate: 4/6
  Reperfusion rate: 6/6
  Wet weight of the residual thrombus: 2,2 ± 0,7 mg
  Reperfusion time: 28 ± 11 min
[3]; 200 000 IU/kg, i.v. bolus
  Reperfusion rate: 0/6
  Wet weight of the residual thrombus: 8,8 ± 1,3 mg
[3]; 800 000 IU/kg, i.v. bolus
  Re-occlusion rate: 1/2
  Reperfusion rate: 2/6
  Wet weight of the residual thrombus: 5,5 ± 0,4 mg
  Reperfusion time: 35 ± 38 min
[3]; 1,600 kU/kg body weight, i.v.
  Reperfusion rate: 100%
[3]; i.v. bolus
  re-occlusion after reperfusion: Most of the dogs treated with K2P or Actilyse® re-occluded after the reperfusion
[3]; i.v. bolus, all doses
  reperfusion time, average over all animals: 24.2 ± 6.2 min
[3]; increasing doses, i.v. bolus
  weight of the residual thrombus compared to placebo: statistically significant reduction in the weight of the residual thrombus
[4]
  Cinj.: 1674 IU/ml
  T1/2α: 1.6 ± 0.2 min
  T1/2β: 14,6 min
  Vc (volume of distribution of the central compartment): 106,1 ml/kg
[4]; listed as Actilyse ®
  T1/2α: 1,6 min
Coagulation system [5]; 1 130 000 IU/kg
  Fibrinogen (% of initial value): 16 ± 13%
  Number of platelets (% of initial value): 110 ± 10%
  Plasminogen (% of initial value): 59 ± 6%
  α2-Antiplasmin (% of initial value): 45 ± 6%
Coagulation system [5]; 1 600 000 IU/kg
  Fibrinogen (% of initial value): 3±0%
  Number of platelets (% of initial value): 119 ± 10%
  Plasminogen (% of initial value): 46 ± 2%
  α2-Antiplasmin (% of initial value): 19 ± 11%
Coagulation system [5]; 1 600 000 IU/kg, listed as Actilyse ®
  Fibrinogen (% of initial value): 3 ± 0%
Coagulation system [5]; 200 000 IU/kg
  Fibrinogen (% of initial value): 97 ± 3%
  Number of platelets (% of initial value): 109 ± 4%
  Plasminogen (% of initial value): 90 ± 3%
  α2-Antiplasmin (% of initial value): 86 ± 4%
Coagulation system [5]; 800 000 IU/kg
  Fibrinogen (% of initial value): 86 ± 4%
  Number of platelets (% of initial value): 104 ± 6%
  Plasminogen (% of initial value): 87 ± 3%
  α2-Antiplasmin (% of initial value): 64 ± 5%
Coagulation system [5]; 2 h after injection, dog
  concentration of platelets: virtually uninfluenced
  lowering of residual contents of plasminogen and α2-antiplasmin: more pronounced with Actilyse® than with K2P
Coagulation system [5]; equipotent doses, semi-logarithmic regression, dog
  residual content of fibrinogen at the ED50 for thrombolytic effect: 38.6%
Bleeding time
  bleeding time compared with control value before injection: increased the bleeding time which was statistically significant at doses of 1130 and 1600 kU/kg body weight
[6]; 400 kU/kg
  Plasma t-PA activity: 47 ± 9 IU/ml
[6]; 800 kU/kg
  Plasma t-PA activity: 107 ± 27 IU/ml

## natural t-PA: tissue-type plasminogen activator t-PA
[7]
  clearance rate: rapid decrease in its plasma concentration (clearance)
plasminogen
  increase of enzymatic activity in presence of fibrin or fibrinogen cleavage products: more than ten-fold
[8]
  side effects at high therapeutic doses: side effects such as for example bleeding
